Experimental data taken from patent US7572612B2, “Method of production of para-hydroxycinnamic acid using a thermostable TAL enzyme” (E.I. du Pont de Nemours and Company, priority 2006, dated 2009).

What was measured:
[1] = Conversion of tyrosine to pHCA in 3 L Applikon BioReactors; assay type: cell-based, E. coli
Description: The following experiment was performed in an Applikon BioReactor (9.0 liter working volume) where pH and temperature of the reaction were controlled. Both strains DPD5154 and DPD5124 were tested. The E. coli DPD5154 (PcTAL) cells were produced by the protocol described in Example 6, with a final cell density of […]. In the case of E. coli DPD5124 (RgTAL) the inoculum was grown in a 2.0 L shake flask containing 500 ml of the following medium (in grams per liter) KH2PO4 (2.0 g/L), K2HPO4 (13.0 g/L), (NH4)2HPO4 […]), MgSO4.7H2O (1.0 g/L), yeast extract (2.0 g/L), Ferric Ammonium Citrate (0.1 g/L). The pH was adjusted to 7.0 and the medium steam sterilized. Glucose (30.0 g/L) and ampicillin (50 mg/L) were added post-sterilization. The culture was grown in 2 L flasks with 500 mL medium, at 35° C. to about OD550 of 2.0 and then the entire contents was used to inoculate the fermentor. The fermentor was controlled at 36° C., pH 6.8, with the dissolved oxygen (DO) tension of 25% controlled with cascade of agitation and air flow with agitation from 400 to 1000 rpm and airflow from 2 to 16 SLPM. The overhead pressure was 0.5. When the glucose level reached below 4.0 g/L a glucose feed program with 60% glucose (w/w) was initiated, consisting of: first 4 h at 0.36 g/min, next 12 h at 0.73 g/min and to the end of run at 0.56 g/min. When the culture reached an OD550 of 35, arabinose was added to final concentration of 0.5 g/L The fermentation was terminated 20 h after arabinose addition. The final cell density in the fermentation broth was an OD550 of 90 and the final volume was about 9 liter. The g dcw/L was determined assuming that 1.0 OD550 contained 0.33 g dcw/L:=30 g dcw/L.
The cells were harvested by centrifugation and stored as a frozen paste at −80° C. until use. Before use, the cell paste was thawed and suspended in the saline solution to about 10% w/v. The cell dry weight concentration was calculated from [cells wet weight]×[% solids] where [% solids] was determined after drying the cells in a vacuum oven, at 90° C. for >16 h.
The tyrosine used was AR grade (J. T. Baker). It was suspended in distilled, deionized water at 33% w/w concentration, homogenized in a blender and added to about 50 g/L final concentration. Reactions were conducted in 3 L Applikon BioReactors (Applikon, De Brauwweg 13, The Netherlands), with a 1-2 L working volume. The set points for the control systems were pH 9.9 with automatic addition of NaOH 25% w/v with agitation at 400 rpm. The bioconversion was typically done by adding the tyrosine suspension to the appropriate concentration, adjusting the pH and temperature to the determined set point, adding the cell suspension to the appropriate concentration, and DI water to the final volume.

[2] = Kinetic parameters of the PcTAL enzyme for tyrosine; assay type: biochemical; conditions: from kcat/KM, 45° C., 100 mM CAPS pH 9.5
Description: The kinetic parameters of the PcTAL enzyme for tyrosine and phenylalanine were determined at 45° C., in 100 mM CAPS, pH 9.5 buffer. The increase of TAL and PAL activities with increasing substrate concentrations followed the typical Michaelis-Menton equation. The kcat of the enzyme was 1.3 S^−1 for tyrosine, and 3.3 S^−1 for phenylalanine. The KM was 44 μM for tyrosine and 161 μM for phenylalanine. The kcat/KM value was slightly higher for tyrosine (3.0 M^−1 S^−1) than for phenylalanine (2.1 M^−1 S^−1), indicating the enzyme's slight preference for tyrosine (PAL/TAL ratio of 0.7). […] The substrate specificity of the PcTAL enzyme is therefore similar to other known fungal PAL/TAL enzymes, such as that from R. glutinis, with dual specificity for tyrosine and phenylalanine.

[3] = Bioconversion of tyrosine to pHCA by cell suspensions in 50 ml tubes; assay type: cell-based, E. coli; conditions: pH 9.9, 0.5 g dcw/L, 20 g/L tyrosine (Example 11)
Description: A suspension of DPD5154 cells in ˜75 ml of saline solution (8.5 g NaCl/L) with a cell concentration at an OD550 of 221.47 was used. The desired OD550 of 2.998 (0.989 g dcw/L) was achieved through serial dilution of the original sample. The cell suspension was equilibrated to 50° C., titrated to pH 9.9 and stored at 50° C. A tyrosine stock of 40 g/L at pH 9.9 was also prepared and stored at 50° C. Reactions measuring bioconversion of tyrosine to pHCA by the cell suspension were carried out at the following temperatures: 34° C., 39° C., 47° C., and 59° C. Each reaction was initiated by adding 5.0 ml of the cell suspension to 5.0 ml of the 40 g/L tyrosine solution in a 50 ml disposable conical tube. The final concentration of cells in each reaction was 0.5 g dcw/L. The final concentration of tyrosine in each reaction was 20 g/L (110 mM). All reactions were incubated at the temperatures indicated above with shaking at 180 rpm. Samples (750 μl) were taken at 30, 60, 90, 120 minutes, centrifuged (14,000×g for ˜8 minutes), the supernatants filtered through 0.2 um filters (Costar #8161), and the filtrates diluted using 50 mM Tris/HCl, pH 7.5. The filtrates were analyzed by HPLC for the amount of pHCA as described in General Methods. The optimum reaction temperature among those temperatures tested was determined to be 39° C., and the reaction slowed down dramatically at 59° C. […]
To determine the optimum pH (between pH 9.8-11.0) for the bioconversion reaction of tyrosine to pHCA at 42° C. using strain DPD5154, reactions were performed as described in Example 11. Tyrosine solutions (40 g/L concentration) were titrated to pH 9.8, 10.0, 10.2, 10.5, and 11.0 and stored at 42° C. Reactions were initiated by adding 5.0 ml of cell suspension to 5.0 ml of each tyrosine solution in a 50 ml disposable conical tube. The final concentration of cells in each reaction was 0.5 g dcw/L and the final concentration of tyrosine was 20 g/L (110 mM). Reactions were incubated at 42° C. with shaking at 180 rpm.

[4] = 30 C., cell conc 6 g/L, reaction time 19 h
[5] = 35 C., cell conc 6 g/L, reaction time 15 h
[6] = 40 C., cell conc 6 g/L, reaction time 7 h
[7] = 43 C., cell conc 6 g/L, reaction time 6 h
[8] = 45 C., cell conc 2 g/L, reaction time 19 h
[9] = 45 C., cell conc 4 g/L, reaction time 10 h
[10] = 45 C., cell conc 6 g/L, reaction time 6 h
[11] = 48 C., cell conc 6 g/L, reaction time 6 h

B1: PcTAL: thermostable tyrosine ammonia lyase (PAL/TAL) enzyme from Phanerochaete chrysosporium, SEQ ID NO:1 (protein, listed as Phanerochaete chrysosporium)
chain: MPSRIDYYTSSGNGYAQSRKSSAIYPASASTGHAAPSTERKPELLDKFVEAYDELQSYREGKPVIVDGHNLSIPAVAATARFGAAVVLDENPETHERVLQSRRVIVDKVSTQRSVYGVSTGFGGSADTRTSDPLQLGHALLQHQHVGVLPTQTESPLPALPLGDPLATTSMPEAWVRGAILIRMNSLIRGHSGVRWELIEKMGELLRENITPLVPLRGSISASGDLSPLSYIAGTLIGSPAIRVFDGPASYGARRILPSNIALANHGVAPIPLSSKEHLGILNGTAFSASVGALALNEAVHLSLLAQVCTAMGTEAMIGAVGSFDAFIHDTARPHPGQVEVARNVRTLLEDSQMAVKAEDEVHIAEDEGELRQDRYPLRTAAQFLGPQIEDILSAHETVTLECNSTTDNPLIDGETGTVHHGGNFQAMAVTNAMEKTRLAIHHIGKLLFAQATELINPMMNRGLPPNLAATDPSHNYFAKGVDIHLAAYVGELGFLASPVSSHIQSAEMHNQAVNSLALVSARYTISALDVLSLLTAAYLYVLCQALDLRAMHNDLQSSLSAIVRELLPKHFPSAAKRADALLPILERTIFRALNSSSSADCKARMVSVAASTTTPLVDFLSADAALASELANITAFRTELATRAADALTTLRTQYLEGARGAAPASKYLGKTRPVYEFVRVTLNVPMHGRENLHNFEMGPGVEDGIIGNNISTIYEAIRDGKMQNVVMQLVKSIKA
**Q.** With B1 as the molecule, how does the “Prod g/L-h” value [1, 4] read?
**A.** The value was 2.20 g/L-h.

**Q.** What about the Prod g/g-h [1, 4] of the same molecule?
**A.** The Prod g/g-h was 0.37 g/g-h.

**Q.** What about the “Prod g/L-h” value [1, 5] of the same molecule?
**A.** Its value is 2.79 g/L-h.

**Q.** And the Prod g/g-h [1, 5]?
**A.** The Prod g/g-h was 0.46 g/g-h.

**Q.** And the “Prod g/L-h” value [1, 6]?
**A.** The value was 5.94 g/L-h.

**Q.** What about the Prod g/g-h [1, 6] of the same molecule?
**A.** The Prod g/g-h was 0.99 g/g-h.

**Q.** What about the “Prod g/L-h” value [1, 7] of the same molecule?
**A.** The value was 6.90 g/L-h.

**Q.** And the Prod g/g-h [1, 7]?
**A.** Its Prod g/g-h is 1.15 g/g-h.

**Q.** What about the “Prod g/L-h” value [1, 8] of the same molecule?
**A.** The value was 2.22 g/L-h.

**Q.** And the Prod g/g-h [1, 8]?
**A.** Its Prod g/g-h is 1.11 g/g-h.

**Q.** What about the “Prod g/L-h” value [1, 9] of the same molecule?
**A.** Its value is 4.18 g/L-h.

**Q.** What about the Prod g/g-h [1, 9] of the same molecule?
**A.** Its Prod g/g-h is 1.05 g/g-h.

**Q.** And the “Prod g/L-h” value [1, 10]?
**A.** The value was 6.83 g/L-h.

**Q.** What about the Prod g/g-h [1, 10] of the same molecule?
**A.** Its Prod g/g-h is 1.14 g/g-h.

**Q.** What about the “Prod g/L-h” value [1, 11] of the same molecule?
**A.** The value was 7.00 g/L-h.

**Q.** And the Prod g/g-h [1, 11]?
**A.** Its Prod g/g-h is 1.17 g/g-h.

**Q.** And the PAL/TAL ratio [2]?
**A.** The PAL/TAL ratio was 0.7.

**Q.** What about the “pHCA (mM) formed in 2 h” value ([3]; 34° C.) of the same molecule?
**A.** Its value is 5.0 mM.

**Q.** And the “pHCA (mM) formed in 2 h” value ([3]; 39° C.)?
**A.** Its value is 6.2 mM.

**Q.** And the “pHCA (mM) formed in 2 h” value ([3]; 47° C.)?
**A.** Its value is 4.7 mM.

**Q.** And the “pHCA (mM) formed in 2 h” value ([3]; 59° C.)?
**A.** Its value is 0.02 mM.
